Tests used:
[1] = biological target: murine cdb3-GFP, deletion of residues 19-23 (mouse) (UniProt P04919); experiment: FRET or BRET
[2] = biological target: murine cdb3-GFP, substitution of residues 12-23 (all 7 acidic residues to amides) (mouse) (UniProt P04919); experiment: FRET or BRET
[3] = biological target: murine cdb3-GFP, substitution of residues 19-23 (acidic residues to amides) (mouse) (UniProt P04919); experiment: FRET or BRET
[4] = biological target: murine cdb3-GFP, substitution of residues 25-31 (negative residues introduced) (mouse) (UniProt P04919); experiment: other fluorescence titration

reduction in deoxyHb binding against wild type [1]: 60% | affinity for deoxyHb, percent of normal [2]: 15% | reduction in deoxyHb binding against wild type [3]: 60% | Kd [4]: 390 nM
Substance: murine hemoglobin (from erythrocytes of C57BL/6J mice) (from UniProt P01942 1-142; P02088 1-147) (complex)
